Laboratory results taken from patent US12356911B2, “Group of UDP-glycosyltransferase for catalyzing carbohydrate chain elongation and application thereof” (GSYNBIOT (SHANGHAI) CO., LTD, priority 2017, dated 2025).

Assays:
Type in all cases: biochemical
[1] = In vitro transglycosylation at C-6, Rg1 as glycosyl acceptor, UDP-xylose as donor; details: crude enzyme (E. coli lysate supernatant); TLC and HPLC, FIG. 7-9
[2] = In vitro transglycosylation at C-20, Rd as glycosyl acceptor, UDP-glucose as donor; details: crude enzyme (E. coli lysate supernatant); TLC/HPLC, FIG. 2, 3, 11
Excerpt: (§1) Cell lysate of recombinant E. coli with empty vector pET28a was used as a control.

[3] = In vitro transglycosylation at C-20, CK as glycosyl acceptor, UDP-glucose as donor; details: crude enzyme (E. coli lysate supernatant); TLC/HPLC, FIG. 2, 3, 12, 16
Excerpt: as §1
As shown in FIG. 16: Protopanaxadiol Ginsenoside CK is used as a glycosyl acceptor, and UDP-glucose is used as a glycosyl donor.

[4] = In vitro transglycosylation at C-3, Rh2 as glycosyl acceptor, UDP-glucose as donor; details: crude enzyme (E. coli lysate supernatant); TLC, FIG. 13, FIG. 15
Excerpt: as §1

Molecule | product formation from Rg1 and UDP-xylose (notoginsenoside R1) [1] | product formation from Rd and UDP-glucose (Rb1) [2] | product formation from CK and UDP-glucose (Gypenoside LXXV) [3] | product formation from Rh2 and UDP-glucose (Rg3) [4]
GT29-7: Ginseng UDP-glycosyltransferase, 446 amino acids, SEQ ID NO: 16 (protein, misc_feature - GT29-7; Panax ginseng) MDNQKGRISIALLPFLAHGHISPFFELAKQLAKRNCNVFLCSTPINLSSIKNRVSDKDSSASIKLVELHLPSSPDLPPHYHTTNGLPSHLMIPLRNAFDTAGPTFSEILKTLNPDLLIYDFNPSWAPEIASSHNIPAVCFIIGGAASSSMSLHSFKNPGEKYPFLDFDDNSNITPEPPSADNMKLLINFMTCFERSCDIILIKSFRELEGKYFDFFSTLSDKTLVPVGPLVQDPMGHNEDPKTEQFINWLDKRAESTVVFVCFGSECFLSNEELEEVAIGLEISMVNFIWAVRLIEGEKKGVLPEGFVQRVGDRGLVVEEWAPQARILGHSSTGGFVSHCGWNSITESMKFGVPVIAMARHFDQPLNGKLAAEVGVGMEVVRDENGKYKREGIAEVIRKVVVEKSGEVIRRKARELSEKMKEKGEQEIDRVVEELVQICKKKKDEQ | can catalyze the formation of Notoginsenoside RI |  |  | 
GT29-5: Ginseng UDP-glycosyltransferase, 446 amino acids, SEQ ID NO: 14 (protein, misc_feature - GT29-5; Panax ginseng) MDNQKGRISIVMLPFLAHGHISPFFELAKHLSKRNCNIFLCSTPINLSSIKNRISDKDSSASIKLVELHLPSSPDLPPHYHTTNGLPSHLMVPLRNAFETAAPTFSEILKTLNPDLLIYDFNPSWAPEIASSHNIPAVCFIIGGAASFSMSLHSFKNPGEKYPFLDFDDNSNITPEPPSADNMKLLLDFMTCFERSCDIILIKSFRELEGKYIDLLSTLSDKTLVPVGPLVQDPMGHNEDPKTEQIINWLDKRAESTVVFVCFGSEYFLSNEELEEVAIGLEISMVNFIWAVRLIEGEKKGVLPEGFVQRVGDRGLVVEGWAPQARILGHSSTGGFVSHCGWSSIAESMKFGVPVIAMARHLDQPLNGKLAAEVGVGMEVVRDENGKYKREGIAEVIRKVVVEKSGEVIRRKARELSEKMKEIGEQLIDRAVEELVQICKKKKDEQ | can catalyze the formation of Notoginsenoside RI |  |  | 
PNUGT29-5: Panax notoginseng glycosyltransferase, 447 amino acids, SEQ ID NO: 47 (protein, Panax notoginseng) MDIEKGRISIVMLPFLAHGHISPFFELAKHLSKRNCNIFLCSTPINLSSIKNRVSDKDSSASIKLVELHLPSSPDLPPQYHTTNGLPSHLMVPLKNAFETVGPTFSEILKTLDPDLLIYDFNPSWAPEIALSHNIPAVYFLTSAAATSSVALRALKNPGEKYPFPDFYDNSNITPEPPSADKMKLFHDFVACFKRSCDIILIKSFRELEGKYIDLLSTLSKKTLVPVGPLVQDPLGHDEDPKTGHLINWLDKRAESTVVFVCFGSEYFPSNEELEEVAIGLEISMVNFILAVRFLEGEKKGVLPEGFVQRVGDRGLVVEGWAPQARILGHSSTGGFVSHCGWSSIMESVKFGVPVIAMARHLDQPLNAKLAAEVGVGMEVVRDENGKYTREAIAEVIRKVVMEKNGEVIRRKARELSDKMKEKGEQEIGRAVEELVQICKMMKDAQY |  | can catalyze the extension of a glucosyl at the C-20 glycosyl of Rd to generate Rb1 | can catalyze the extension of a glucosyl at the C-20 glycosyl to generate Gypenoside LXXV | can catalyze the extension of a glucosyl at the C-3 glycosyl of Rh2 to generate Rg3
PNUGT29-8: Panax notoginseng glycosyltransferase, 447 amino acids, SEQ ID NO: 53 (protein, Panax notoginseng) MDIEKGRISIVMLPFLAHGHISPFFELAKHLSKRNCNIFLCSTPINLSSIKNRVSDKDSSASIKLVELHLPSSPDLPPQYHTTNGLPSHLMVPLKNAFETVGPTFSEILKTLDPDLLIYDFNPSWAPEIALSHNIPAVYFLTSAAATSSVALRALKNPGEKYPFPDFYDNSNITPEPPSADKMKLFHDFVACFKRSCDIILIKSFRELEGKYIDLLSTLSKKTLVPVGPLVQDPLGHDEDPKTGHLINWLDKRAESTVVFVCFGSEYFPSNEELEEVAIGLEISMVNFILAVRFLEGEKKGVLPEGFVQRVGDRGLVVEGWAPQARILGHSSTGGFVSHCGWSSIMESVKFGVPVIAMARHLDQPLNAKLAAGVGVGMEVVRDENGKYKREAIAEVIRKVVMEKNGEVIRRKARELSEKMKETGEQEIGRAVEELVQICKMKKDAQY |  | can catalyze the extension of a glucosyl at the C-20 glycosyl of Rd to generate Rb1 | can catalyze the extension of a glucosyl at the C-20 glycosyl to generate Gypenoside LXXV | can catalyze the extension of a glucosyl at the C-3 glycosyl of Rh2 to generate Rg3
PNUGT29-6: Panax notoginseng glycosyltransferase, 447 amino acids, SEQ ID NO: 49 (protein, Panax notoginseng) MDIEKGRISIVMLPFLAHGHISPFFELAKHLSKRNCNIFLCSTPINLSSIKNRVSGKDSSASIKLVELHLPSSPDLPPQYHTTNGLPSHLMVPLKNAFETVGPTFSEILKTLDPDLLIYDFNPSWAPEIALSHNIPAVYFLTSAAATSSVALRALKNPGEKYPFPDFYDNSNITPEPPSADKMKLFHDFVACFKRSCDIILIKSFRELEGKYIDLLSTLSKKTLVPVGPLVQDPLGHDEDPKTGHLINWLDKRAESTVVFVCFGSEYFPSNEELEEVAIGLEISMVNFILAVRFLEGEKKGVLPEGFVQRVGDRGLVVEGWAPQARILGHSSTGGFVSHCGWSSIMESVKFGVPVIAMARHLDQPLNAKLAAEVGVGMEVVRDENGKYTREAIAEVIRKVVMEKNGEVIRRKARELSDKMKEKGEQEIGRAVEELVQICKMKKDAQY |  | can catalyze the extension of a glucosyl at the C-20 glycosyl of Rd to generate Rb1 | can catalyze the extension of a glucosyl at the C-20 glycosyl to generate Gypenoside LXXV | can catalyze the extension of a glucosyl at the C-3 glycosyl of Rh2 to generate Rg3
PNUGT29-7: Panax notoginseng glycosyltransferase, 447 amino acids, SEQ ID NO: 51 (protein, Panax notoginseng) MDIEKGRISIVMLPFLAHGHISPFFELAKHLSKRNCNIFLCSTPINLSSIKNRVSDKDSSASIKLVELHLPSSPDLPPQYHTTNGLPSHLMVPLKNAFETVGPTFSEILKTLDPDLFIYDFNPSWAPEIALSHNIPAVYFLTSAAATSSVALRALKNPGEKYPFPDFYDNSNITPEPPSADKMKLFHDFVACFKRSCDIILIKSFRELEGKYIDLLSTLSKKTLVPVGPLVQDPLGHDEDPKTGHLINWLDKRAESTVVFVCFGSEYFPSNEELEEVAIGLEISMVNFILAVRFLEGEKKGVLPEGFVQRVGDRGLVVEGWAPQARILGHSSTGGFVSHCGWSSIMESVKFGVPVIAMARHLDQPLNAKLAAEVGVGMEVVRDENGKYTREAIAEVIRKVVMEKNGEVIRRKARELSDKMKEKGEQEIGRAVEELVQICKMKKDAQY |  | can catalyze the extension of a glucosyl at the C-20 glycosyl of Rd to generate Rb1 | can catalyze the extension of a glucosyl at the C-20 glycosyl to generate Gypenoside LXXV | can catalyze the extension of a glucosyl at the C-3 glycosyl of Rh2 to generate Rg3
PNUGT29-9: Panax notoginseng glycosyltransferase, 447 amino acids, SEQ ID NO: 55 (protein, Panax notoginseng) MDIEKGRISIVMLPFLAHGHISPFLELAKHLSKRNCNIFLCSTPINLSSIKNRVSDKDSSASIKLVELHLPSSPDLPPQYHTTNGLPSHLMVPLKNAFETVGPTFSEILKTLDPDLLIYDFNPSWAPEIALSHNIPAVYFLTSAAATSSVALRALKNPGEKYPFPDFYDNSNITPEPPSADKMKLFHDFVACFKRSCDIILIKSFRELEGKYIDLLSTLSKKTLVPVGPLVQDPLGHDEDPKTGHLINWLDKRAESTVVFVCFGSEYFPSNEELEEVAIGLEISMVNFILAVRFLEGEKKGVLPEGFVQRVGDRGLVVEGWAPQARILGHSSTGGFVSHCGWSSIMESVKFGVPVIAMARHLDQPLNAKLAAEVGVGMEVVRDENGKYKREAIAEVIRKVVMEKNGEVIRRKARELSEKMKETGEQEIGRAVEELVQICKMKKDAQY |  | can catalyze the extension of a glucosyl at the C-20 glycosyl of Rd to generate Rb1 | can catalyze the extension of a glucosyl at the C-20 glycosyl to generate Gypenoside LXXV | can catalyze the extension of a glucosyl at the C-3 glycosyl of Rh2 to generate Rg3
GT29-4: Ginseng UDP-glycosyltransferase, 446 amino acids, SEQ ID NO: 12 (protein, misc_feature - GT29-4; Panax ginseng) MDNQEGRISIALLPFLAHGHISPFFELAKHLSKRNCNIFLCSTPINLSSIKNRISDKDSSASIKLVELHLPSSPDLPPHYHTTNGLPSHLMVPLRNAFETAAPTFSEILKTLNPDLLIYDFNPSWAPEIASSHNIPAVCFIIGGAASFSMSLHSFKNPGEKYPFLDFDDNSNITPEPPSADNMKLLLDFMTCFERSCDIILIKSFRELEGKYFDFYSTLSDKTLVPVGPLVQDPMGHNEDPKTEQFINWLDKRAESTVVFVCFGSEYFLSNEELEEVAIGLEISMVNFIWAVRLIEGEKKGVLPEGFVQRVGDRGLVVEGWAPQARILGHSSTGGFVSHCGWSSITESMKFGVPVIAMARHLDQPLNGKLAAEVGVGMEVVRDENGKYKREGIAEVIRKVVVEKSGEVMRRKARELSEKMKEKGEEEIDRAVEELVQICKKKKDAQ | can catalyze the formation of Notoginsenoside RI |  |  | 
